Assay results taken from PMC6553756 (PLoS ONE, 2019).

B1: authentic anti-PrP monoclonal antibody 44B1 (IgG-44B1) (antibody, V domains shown)
VH: DVKLVESGEGLVKPGGSLKLSCAASGITFSRYAMSWVRQTPEKRLEWVAYISSGGDYINYADTVKGRFTISRDNARNTLYLQMSSLKSEDTAMYYCTRVTPYWYFDVWGTGTTVTVSS
VL: DIVLTQSPASLGVSLGQRATISCRASESVDSYGNSFMHWYQQKPGQPPKVLIYRASNRESGIPARFSGSGSRTDFTLTINPVEADDVATYYCQQSNEDPYTFGGGTKLEIK
notes: also called mAb 44B1; source: hybridoma, purified IgG; copies: 2 + 2
B2: recombinant Fab of mAb 44B1 (rFab-44B1) (Fab, V domains shown)
VH: B1 VH
VL: B1 VL
notes: source: HEK293T, transfected (IRES plasmid), culture supernatant

What was measured:
recombinant mouse PrP = molecular target: T1, recombinant mouse PrP (Mus musculus, UniProt P04925); assay: ELISA
T1 construct: also called rMoPrP

[1] = molecular target: T2, cellular prion protein (PrP^C) expressed in the brain of mock-infected mice (Mus musculus, mouse strain not shown, UniProt P04925); assay: immunostaining of cells or tissue; conditions: one partner purified
T2 construct: source: endogenous, frozen brain sections of mock-infected mice

[2] = molecular target: abnormal isoform prion protein (PrP^Sc) in the brain of Chandler prion-infected mice (Mus musculus, brain, Chandler prion …, UniProt P04925); assay: immunostaining of cells or tissue; conditions: one partner purified
Chain of abnormal isoform prion protein (PrP^Sc) in the brain of Chandler prion-infected mice (P04925 23-230): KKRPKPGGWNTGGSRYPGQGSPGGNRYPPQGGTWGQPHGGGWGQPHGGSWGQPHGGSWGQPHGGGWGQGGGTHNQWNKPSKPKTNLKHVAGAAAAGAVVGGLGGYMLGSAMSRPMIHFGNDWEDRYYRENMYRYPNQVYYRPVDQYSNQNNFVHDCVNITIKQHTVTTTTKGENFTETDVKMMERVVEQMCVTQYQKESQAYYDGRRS

T1 sequence (P04925 23-230): as above
T2 sequence (P04925 23-230): as above

Row | Binder | binding result (recombinant mouse PrP; both partners purified) | binding result [1] | binding result [2] | binding result (recombinant mouse PrP; one partner purified)
1 | B1 | binds | binds | binds | –
2 | B2 | – | – | – | binds
